Laboratory results as given in paper PMC2757703.

Tested on: 40S small ribosomal subunit (rabbit reticulocyte lysate) (rabbit)
Experiment: sucrose density gradient
Settings: EMSA: 20 mM Tris pH 7.6, 50 mM KCl, 2.5 mM MgOAc, 0.05% NP40, 1 mM DTT, 1 ug/uL yeast tRNA, 30 C 20 min, gradients: 20 mM Tris-HCl pH 7.5, 100 mM KOAc

| Substance | binding signal (% of labeled RNA bound to small subunit) | binding signal (scale: % of labeled RNA in small-subunit fractions) |
| --- | --- | --- |
| CrPV IRES RNA | > 50 |  |
| GLV IRES RNA |  | 10 |
